In the Human Domainome abundance scans (Beltran et al. 2025):

B1: Dystrobrevin alpha, residues 235 to 294; numbered along this chain, Q9Y4J8 (parent)
chain: ENVFHPVECSYCHSESMMGFRYRCQQCHNYQLCQDCFWRGHAGGSHSNQHQMKEYTSWKS
B2: Myocardin, residues 363 to 406; numbered along this chain, Q8IZQ8 (parent)
chain: KPGPLPPNLDDLKVSELRQQLRIRGLPVSGTKTALMDRLRPFQD

Variants of: B1
Assay: abundance fitness (aPCA) (normalised: wild type 0, dead -1); higher = more abundant; growth selection in yeast, the domain comes from the species named
Conditions: Homo sapiens

Abundance fitness: each site, then its substitutions
S60: G 0.064, R 0.134, L -0.196, A -0.446, C -0.276, I -0.519, Y -0.207, N -0.216, F 0.02, Q 0.216, D 0.335, V 0.034, H 0.112, P -0.065
N48: P 0.108, W -0.532, Y -0.318, L -0.22, V 0.037, H -0.174, E -0.167, K -0.248, I -0.177, Q -0.084, G -0.045, R -0.182, M -0.149, A 0.007, F -0.274, C -0.063, T -0.042
Q51: Y 0.077, P -0.091, F -0.536, H -0.319, N -0.095, I 0.009, C -0.148, A -0.066, W -0.517, M -0.334, T 0.042, V -0.117, L -0.153, G -0.234, D 0.101, S 0.062, K 0.046
S57: V 0.005, I -0.11, T 0.008, K -0.019, L -0.165, P 0.171, H 0.124, E 0.058, N -0.291, M 0.036, A 0.085, F -0.391, Y -0.395, W -0.192, D 0.071, C 0.074, G -0.044, Q -0.059, R -0.152
Y55: V 0.238, A -0.064, L 0.06, I -0.066, W 0.06, R -0.11, K -0.609, E 0.117, P -0.078, C 0.209, Q -0.071, N -0.144, F -0.155, H -0.134, S 0.245, D 0.243, T 0.104
M52: E -0.567, L -0.248, N -0.764, P -0.478, H -0.87, S -0.628, Q -0.294, D -0.471, I -0.3, V -0.025, W -0.449, R -0.792, K -0.62, F -0.005, C -0.194, G -0.554, Y -0.18
K59: L -0.013, T 0.049, D 0.356, F -0.142, H 0.074, V -0.105, G 0.229, I -0.392, Y -0.099, E -0.127, A 0.082, C -0.001, Q 0.126, P -0.034, N 0.017
E54: G -0.29, T 0.312
Q49: R 0.017, A 0.073, G 0.103, D 0.128, H -0.141, Y -0.256, N 0.019, L -0.003, I -0.205, P -0.249, K -0.14, S 0.029, V -0.034, T 0.072, C -0.083, F -0.138
H50: G -0.493, M -0.503, V -0.686, L -0.622, W -0.624, P -0.463, F -0.755, Y -0.527, N -0.493, E -0.516, C -0.301, Q -0.509, K -0.438, D -0.411, A -0.543, I -0.524
T56: G 0.024, H -0.025, R -0.061, K 0.066, F -0.642, P 0.126, M -0.151, Y -0.509, Q 0.044, V -0.137, N -0.045, I -0.218, A 0.017, L -0.462, W -0.605, E 0.307, C 0.076, S 0.104, D 0.188
K53: L -0.108, Q 0.026, H -0.167, S -0.11, G -0.248, I -0.111, A -0.135, Y -0.262, M -0.108, P -0.592, D -0.16, E -0.029, T -0.154, C -0.137, V 0.137, R -0.111, F -0.313, W -0.459
S47: N 0.029, Y -0.57, I -0.25, L -0.333, K 0.038, P -0.172, Q -0.031, M -0.322, V -0.199, R -0.118, W -0.051
W58: G 0.192, N 0.232, M 0.251, C 0.003, T 0.258, S 0.057, Y 0.142, H 0.105, Q -0.127, E 0.297, R 0.077, V 0.224, F -0.021, K 0.195, A 0.258, L 0.019, D 0.284

Variants of: B2
Assay: as above
Conditions: Homo sapiens

Abundance fitness, by site and new letter:
G3: Q 0.295, T 0.099, V 0.102, L -0.025, W -0.607, R 0.016, K 0.245, P -0.265, D -0.228, M 0.146, A 0.126, S -0.077, H 0.059, Y -0.067, C -0.792
P7: T 0.018, K 0.464, Y -0.085, V 0.227, E 0.253, S -0.009, Q 0.266, D 0.052, G 0.142, W -0.414, N 0.346, L -0.001, H 0.188, A 0.12, I 0.107, M 0.239
N8: L -0.35, Q -0.154, M -0.274, D -0.246, G -0.623, E -0.232, I -0.408, P -0.541, A -0.187, C -0.342, H -0.373
P2: D 0.407, K 0.284, Y 0.136, F 0.328, I 0.466, A 0.25, R 0.085, E 0.401, T -0.016, N -0.011, H -0.093, S 0.184, Q 0.374, W -0.231, V 0.39, M 0.387
P4: G -0.229, F 0.755, Y 0.368, H 0.093, K 0.371, E 0.107, S 0.078, N 0.463, A 0.069, T 0.329, M 0.392, Q 0.136, V 0.09, L 0.102, R -0.059, C -0.079, D 0.276
K1: S -0.672, M -0.835, R -1, G -0.47, W -0.98, V -0.643, A -0.671, N 0.11, L -0.666, C -0.286, I 0.021, T -0.521, Y -0.608, D -0.268
P6: G -0.153, S -0.095, T -0.197, Q -0.267, V -0.133, L -0.26, I -0.361, M -0.135, A -0.02, W -0.484, N -0.34, D -0.195, E -0.131, F -0.356
L5: D -0.245, H -0.311, C -0.044, G -0.283, E -0.13, M -0.139, T -0.302, F -0.307, Y -0.204, S -0.341, W -0.984, Q -0.131, K -0.514, N -0.276, I 0.011, R -0.448
